Laboratory results published in PMC7972811 (Cell Reports, 2021).
Residue numbers refer to the chain shown, from its start. Names and notes keep the numbering of the source. Like-named read-outs stand apart in the source and are kept apart here.

Columns and labels:
[1] = biological target: T1, SARS-CoV-2 spike S2P (ectodomain of the SARS-CoV-2 S trimer) (SARS-CoV-2, ancestral (P0DTC2 sequence), stabilised); assay: cell-based or functional assay
[2] = biological target: T1, SARS-CoV-2 spike S2P (ectodomain of the …); assay: SPR
[3] = biological target: T1, SARS-CoV-2 spike S2P (ectodomain of the …); assay: cryo-EM structure
[4] = biological target: T1, SARS-CoV-2 spike S2P (ectodomain of the …); assay: cryo-EM structure; remark: listed apart in the source
[5] = biological target: T1, SARS-CoV-2 spike S2P (ectodomain of the …); assay: cryo-EM structure; remark: listed apart in the source

B1: 2-43 IgG with the paratope somatic hypermutation S76T (heavy chain) reverted to germline (antibody, V domains shown)
VH: not shown
VL: QSALTQPASVSGSPGQSITISCTGTSSDVGGYNYVSWYQQHPGKAPKLMIYDVSKRPSGVSNRFSGSKSGNTASLTISGLQAEDEGDYYCSSYTSSSTWVFGGGTKLTVL
- pseudovirus neutralization potency, fold reduction against 2-43 IgG [1]: ~5 fold
- fold reduction of IgG-apparent binding affinity against 2-43 IgG [2]: ~6 fold

B2: 2-15 IgG with the paratope somatic hypermutation N53I (heavy chain) reverted to germline (antibody, V domains shown)
VH: QVQLVQSGAEVKKPGASVRVSCKASGYTFTGYYMHWVRQAPGQGLEWMGWINPNSDGTNYAQKFQGWVTMTRDTSISTVYMELSRLRSDDTAVYYCARGGSRCSGGNCYGWAYDAFDIWGQGTMITVSS
VL: B1 VL with Y34F, G86A, Y88C, W99F, G103T, L107V
- pseudovirus neutralization potency, fold reduction against 2-15 IgG [1]: 217 fold
- fold reduction of binding affinity against 2-15 IgG [2]: 56 fold

B3: 2-4 IgG with the somatic hypermutation A60T (heavy chain) reverted to germline (antibody, V domains shown)
VH: not shown
VL: QSALTQPPSASGSPGQSVTISCTGTSSDVGGYNYVSWYQQHPGKAPKLMIYEVSKRPSGVPDRFSGSKSGNTASLTVSGLQAEDEADYYCSSYAGSNNLVFGGGTKLTVL
- pseudovirus neutralization, fold reduction against 2-4 IgG [1]: ~9 fold
- fold reduction of binding affinity against 2-4 IgG [2]: ~6 fold

B4: 2-43 Fab (Fab, V domains shown)
VH: not shown
VL: B1 VL
- neutralization potency of the Fab, fold less than its IgG form [1]: ~140 fold
- stoichiometry N [3]: 3 Fab per spike trimer

B5: 2-15 Fab (Fab, V domains shown)
VH: B2 VH with N54I
VL: B1 VL with Y34F, G86A, Y88C, W99F, G103T, L107V
- neutralization potency of the Fab, fold less than its IgG form [1]: ~95 fold
- stoichiometry N [4]: 1 Fab per spike trimer

B6: H4 Fab (Fab, V domains shown)
VH: not shown
VL: DIQMTQSPLSLPVTPGEPASISCRSSQSLLDSDDGNTYLDWYLQKPGQSPQLLIYTLSYRASGVPDRFSGSGSGTDFTLKISRVEAEDVGVYYCMQRIEFPLTFGGGTKVEIK
- stoichiometry N [5]: 1 Fab per spike trimer
